Measurements: patent publication US12467929

How the values were obtained:
[1] = biological target: recombinant UBE3A protein (Homo sapiens (Human)) (UniProt Q05086); test: 3-step Simoa; capture GTX; UBE3A 0.488 ng/ml
[2] = biological target: recombinant UBE3A protein (Homo sapiens (Human)) (UniProt Q05086); test: Simoa head-to-head, Table 11; capture GTX; UBE3A 0.032 ng/ml
[3] = biological target: recombinant UBE3A protein (Homo sapiens (Human)) (UniProt Q05086); test: Simoa; capture GTX; SBG 75 pm; UBE3A 0.800 ng/ml
[4] = biological target: recombinant UBE3A protein (Homo sapiens (Human)) (UniProt Q05086); test: Simoa; capture GTX; SBG 100 pm; UBE3A 0.800 ng/ml
[5] = biological target: recombinant UBE3A protein (Homo sapiens (Human)) (UniProt Q05086); test: Simoa head-to-head, Table 11; capture GTX; UBE3A 500 ng/ml
[6] = biological target: recombinant UBE3A protein (Homo sapiens (Human)) (UniProt Q05086); test: 3-step Simoa, 120 min bead step; capture GTX; UBE3A 100 ng/ml
[7] = biological target: recombinant UBE3A protein (Homo sapiens (Human)) (UniProt Q05086); test: Simoa; capture GTX; 3E5 0.4 ug/ml; UBE3A 0.00640 ng/ml
[8] = biological target: recombinant UBE3A protein (Homo sapiens (Human)) (UniProt Q05086); test: 3-step Simoa, 120 min bead step; capture GTX; UBE3A 20.0 ng/ml
[9] = biological target: recombinant UBE3A protein (Homo sapiens (Human)) (UniProt Q05086); test: Simoa; capture GTX + helper beads; 3E5 0.4 ug/ml; UBE3A 4.00 ng/ml
[10] = biological target: recombinant UBE3A protein (Homo sapiens (Human)) (UniProt Q05086); test: Simoa; capture GTX + helper beads; 3E5 0.4 ug/ml; UBE3A 0.00128 ng/ml
[11] = biological target: recombinant UBE3A protein (Homo sapiens (Human)) (UniProt Q05086); test: Simoa; capture GTX, no helper beads; 3E5 0.1 ug/ml; UBE3A 0.800 ng/ml
[12] = biological target: recombinant UBE3A protein (Homo sapiens (Human)) (UniProt Q05086); test: Simoa; capture GTX; SBG 75 pm; UBE3A 4.00 ng/ml
[13] = biological target: recombinant UBE3A protein (Homo sapiens (Human)) (UniProt Q05086); test: Simoa; capture GTX; 3E5 0.2 ug/ml; UBE3A 0.00640 ng/ml
[14] = biological target: recombinant UBE3A protein (Homo sapiens (Human)) (UniProt Q05086); test: Simoa; capture GTX + helper beads; 3E5 0.1 ug/ml; UBE3A 0.0320 ng/ml
[15] = biological target: recombinant UBE3A protein (Homo sapiens (Human)) (UniProt Q05086); test: Simoa; capture GTX; SBG 150 pm; UBE3A 20.0 ng/ml
[16] = biological target: recombinant UBE3A protein (Homo sapiens (Human)) (UniProt Q05086); test: Simoa; capture GTX; 3E5 0.1 ug/ml; UBE3A 4.00 ng/ml
[17] = biological target: recombinant UBE3A protein (Homo sapiens (Human)) (UniProt Q05086); test: Simoa; capture GTX; 3E5 0.2 ug/ml; UBE3A 0.800 ng/ml
[18] = biological target: recombinant UBE3A protein (Homo sapiens (Human)) (UniProt Q05086); test: Simoa head-to-head, Table 10; capture MS 2F6; UBE3A 0.80 ng/ml
[19] = biological target: recombinant UBE3A protein (Homo sapiens (Human)) (UniProt Q05086); test: Simoa; capture GTX; SBG 75 pm; UBE3A 0.00640 ng/ml
[20] = biological target: recombinant UBE3A protein (Homo sapiens (Human)) (UniProt Q05086); test: Simoa; capture GTX; SBG 150 pm; UBE3A 0.160 ng/ml

Sequence of UniProt Q05086 (Q05086 whole entry): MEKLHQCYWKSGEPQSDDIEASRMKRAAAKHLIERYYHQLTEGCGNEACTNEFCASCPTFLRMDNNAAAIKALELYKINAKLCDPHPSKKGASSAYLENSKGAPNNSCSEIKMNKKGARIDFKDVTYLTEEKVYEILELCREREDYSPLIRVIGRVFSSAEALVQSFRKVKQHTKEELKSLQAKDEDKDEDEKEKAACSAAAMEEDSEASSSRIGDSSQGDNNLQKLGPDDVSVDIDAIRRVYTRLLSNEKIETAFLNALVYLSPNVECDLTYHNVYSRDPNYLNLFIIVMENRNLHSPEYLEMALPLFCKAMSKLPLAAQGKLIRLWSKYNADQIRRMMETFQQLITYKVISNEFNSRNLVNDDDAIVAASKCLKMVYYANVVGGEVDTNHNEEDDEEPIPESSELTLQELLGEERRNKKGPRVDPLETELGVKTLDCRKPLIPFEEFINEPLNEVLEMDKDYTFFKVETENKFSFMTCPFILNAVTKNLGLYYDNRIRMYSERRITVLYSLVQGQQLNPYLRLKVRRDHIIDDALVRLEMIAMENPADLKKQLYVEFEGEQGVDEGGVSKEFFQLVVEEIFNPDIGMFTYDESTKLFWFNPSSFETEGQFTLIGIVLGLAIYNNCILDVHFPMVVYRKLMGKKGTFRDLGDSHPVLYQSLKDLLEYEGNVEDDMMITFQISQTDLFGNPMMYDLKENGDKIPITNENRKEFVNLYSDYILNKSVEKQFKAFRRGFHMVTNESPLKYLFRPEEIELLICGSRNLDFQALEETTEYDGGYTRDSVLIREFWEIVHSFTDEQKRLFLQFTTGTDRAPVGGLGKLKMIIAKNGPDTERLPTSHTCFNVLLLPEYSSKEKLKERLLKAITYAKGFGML

NB500-240 (Novus) (antibody)
AEB1 [1]: 0.0023
AEB2 [1]: 0.0026
Ave AEB [1]: 0.0025
Signal to Background [1]: 0.759

anti-UBE3A antibody 3E5 (SAB1404508-100 ug, Millipore-Sigma)
AEB1 [2]: 0.0127
AEB2 [2]: 0.0142
Ave AEB [2]: 0.0135
Signal to Background [2]: 1.65
AEB1 [3]: 0.078
AEB2 [3]: 0.115
AEB3 [3]: 0.126
Average AEB [3]: 0.106
Signal to Background [3]: 24.3
AEB1 [4]: 0.21
AEB2 [4]: 0.214
AEB3 [4]: 0.211
Average AEB [4]: 0.212
Signal to Background [4]: 25.3
AEB1 [5]: 9.97
AEB2 [5]: 10.3
Ave AEB [5]: 10.1
Signal to Background [5]: 1240
AEB1 [6]: 7.86
AEB2 [6]: 8.12
Ave AEB [6]: 7.99
Signal to Background [6]: 4690
AEB1 [7]: 0.0671
AEB2 [7]: 0.0638
AEB3 [7]: 0.0865
Average AEB [7]: 0.0725
Signal to Background [7]: 1.16
AEB1 [8]: 2.8
AEB2 [8]: 2.88
Ave AEB [8]: 2.84
Signal to Background [8]: 1660
AEB1 [9]: 1.16
AEB2 [9]: 1.12
Average AEB [9]: 1.14
Signal to Background [9]: 58.5
AEB1 [10]: 0.0222
AEB2 [10]: 0.0178
Average AEB [10]: 0.02
Signal to Background [10]: 1.02
AEB1 [11]: 0.164
AEB2 [11]: 0.157
Average AEB [11]: 0.16
Signal to Background [11]: 27.9
AEB1 [12]: 0.459
AEB2 [12]: 0.46
AEB3 [12]: 0.458
Average AEB [12]: 0.459
Signal to Background [12]: 105
AEB1 [13]: 0.0421
AEB2 [13]: 0.0466
AEB3 [13]: 0.0433
Average AEB [13]: 0.044
Signal to Background [13]: 1.12
AEB1 [14]: 0.0159
AEB2 [14]: 0.0108
Average AEB [14]: 0.0134
Signal to Background [14]: 2.33
AEB1 [15]: 5.87
AEB2 [15]: 5.57
AEB3 [15]: 5.72
Average AEB [15]: 5.72
Signal to Background [15]: 431
AEB1 [16]: 0.848
AEB2 [16]: 0.891
AEB3 [16]: 0.878
Average AEB [16]: 0.873
Signal to Background [16]: 45.3
AEB1 [17]: 0.355
AEB2 [17]: 0.378
AEB3 [17]: 0.358
Average AEB [17]: 0.364
Signal to Background [17]: 9.26
AEB1 [18]: 0.0353
AEB2 [18]: 0.037
Ave AEB [18]: 0.0361
Signal to Background [18]: 2.67
AEB1 [19]: 0.0059
AEB2 [19]: 0.0047
AEB3 [19]: 0.0074
Average AEB [19]: 0.006
Signal to Background [19]: 1.36
AEB1 [20]: 0.0773
AEB2 [20]: 0.0769
Average AEB [20]: 0.0771
Signal to Background [20]: 5.82
